Experimental findings from patent US20250197493A1 (Eli Lilly, published 2025) are described below.

Test [1] concerns the target T1, Human LAG-3 ECD-His (human, UniProt P18627 23-449).
T1 construct: It was the analyte in SPR and the antigen in HDX-MS; also called human LAG-3 soluble extracellular domain (ECD); human LAG-3-His ECD
T1 sequence: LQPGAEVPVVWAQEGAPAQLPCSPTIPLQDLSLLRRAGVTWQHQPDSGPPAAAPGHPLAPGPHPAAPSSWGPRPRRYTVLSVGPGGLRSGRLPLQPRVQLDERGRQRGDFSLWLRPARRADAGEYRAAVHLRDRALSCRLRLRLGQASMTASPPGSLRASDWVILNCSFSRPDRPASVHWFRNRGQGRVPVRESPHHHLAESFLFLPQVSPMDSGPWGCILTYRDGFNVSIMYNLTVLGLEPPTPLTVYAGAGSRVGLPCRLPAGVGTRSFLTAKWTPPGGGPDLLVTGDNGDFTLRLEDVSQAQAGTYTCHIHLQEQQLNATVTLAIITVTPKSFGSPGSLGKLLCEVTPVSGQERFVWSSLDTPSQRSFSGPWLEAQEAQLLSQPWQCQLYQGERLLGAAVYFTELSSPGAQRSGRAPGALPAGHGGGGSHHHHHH
In words: SPR (Biacore), antibody captured, 25° C. Here is the method:
(§1) Surface Plasmon Resonance (SPR) at 37° C. is performed to determine the binding kinetics and affinity of LAG-3 antibodies to human LAG-3 and/or cynomolgus monkey LAG-3. A Biacore® T200 (Cytiva, Marlborough, MA) was used to measure the binding kinetics and affinities of Antibody A to human LAG-3 soluble extracellular domain (ECD) SEQ ID NO: 59) and to cynomolgus LAG-3 ECD (ACROBiosystems, Cat #LA3-C82H3; SEQ ID NO: 59) by surface plasmon resonance. Samples were diluted in HBS-EP+ (10 mM Hepes, 150 mM NaCl, 3 mM EDTA, 0.05% Tween-20, pH 7.6) (Teknova Cat #H8022) with 5 g/L of BSA (Jackson ImmunoResearch Cat #001-000-161) running buffer. PrismA Series S Sensor chip (Cat #29650263) is purchased from Cytiva.
(§2) Binding was evaluated using multi-cycle kinetics by an antibody capture method. Each cycle was performed at either 37° C. or 25° C. at a flow rate of 10 μL/min for antibody capture to the PrismA chip and 100 μL/min for analyte association (with 120 sec contact time) and dissociation (900 sec). Each cycle consisted of the following steps: injection of antibody at 1 μg/mL in HBS-EP+ targeting Rmax values of 60 RU on flow cell, injection of analyte in HBS-EP+ (concentration range of 500 nM to 0.25 nM by two-fold serial dilution for human LAG-3-His ECD (SEQ ID NO: 59) followed by 900-second dissociation phase, and regeneration using 10 μL of 10 mM glycine hydrochloride, pH 1.5 over a 60-second contact time utilizing a 10 μL/min flow rate. All analyte concentrations were determined utilizing monomeric molecular weight (MW) values. Association rates (kₒₙ) and dissociation rates (koff) for LAG-3-ECD were evaluated using double referencing by flow-cell one reference subtraction in addition to 0 nM blank subtraction and fit to “1:1 (Langmuir) binding” model in the BIAevaluation software version 4.1. The dissociation constant (KD) was calculated from the binding kinetics according to the relationship KD=Koff/Kₒₙ. Stoichiometry=[RUₘₐₓ/RUcaptured]/[MWanalyte/MWantibody] where MW_{Antibody A} is 150 kDa. Values are reported as mean±standard deviation.

The target of test [2] is T2, Cynomolgus LAG-3 ECD-His (cynomolgus monkey).
T2 construct: Bought protein (ACROBiosystems); also called ACROBiosystems Cat #LA3-C82H3
T2 chain: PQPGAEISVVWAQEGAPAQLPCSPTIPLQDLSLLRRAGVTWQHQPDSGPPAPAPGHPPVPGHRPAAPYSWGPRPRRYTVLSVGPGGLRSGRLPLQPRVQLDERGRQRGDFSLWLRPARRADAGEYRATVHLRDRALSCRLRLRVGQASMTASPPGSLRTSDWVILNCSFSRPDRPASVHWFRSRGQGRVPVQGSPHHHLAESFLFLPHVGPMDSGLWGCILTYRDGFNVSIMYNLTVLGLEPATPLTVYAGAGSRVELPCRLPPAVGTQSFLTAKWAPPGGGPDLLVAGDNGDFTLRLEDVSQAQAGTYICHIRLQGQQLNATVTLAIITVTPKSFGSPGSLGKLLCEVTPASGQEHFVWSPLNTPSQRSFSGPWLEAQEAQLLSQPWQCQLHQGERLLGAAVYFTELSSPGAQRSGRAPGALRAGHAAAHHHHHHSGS
The test is described as follows: SPR (Biacore), antibody captured, 25° C. Here is the method: as §1, §2

Test [3] addresses T1, Human LAG-3 ECD-His. The test is described as follows: SPR (Biacore), antibody captured, 37° C. Here is the method:
as §1, §2

The target of test [4] is T2, Cynomolgus LAG-3 ECD-His. The test is described as follows: SPR (Biacore), antibody captured, 37° C. Here is the method: as §1, §2
Test [5] concerns the target T3, cell membrane-expressed human LAG-3 (human, UniProt P18627 23-525).
T3 construct: also called cell surface human LAG-3; hLAG-3
T3 sequence: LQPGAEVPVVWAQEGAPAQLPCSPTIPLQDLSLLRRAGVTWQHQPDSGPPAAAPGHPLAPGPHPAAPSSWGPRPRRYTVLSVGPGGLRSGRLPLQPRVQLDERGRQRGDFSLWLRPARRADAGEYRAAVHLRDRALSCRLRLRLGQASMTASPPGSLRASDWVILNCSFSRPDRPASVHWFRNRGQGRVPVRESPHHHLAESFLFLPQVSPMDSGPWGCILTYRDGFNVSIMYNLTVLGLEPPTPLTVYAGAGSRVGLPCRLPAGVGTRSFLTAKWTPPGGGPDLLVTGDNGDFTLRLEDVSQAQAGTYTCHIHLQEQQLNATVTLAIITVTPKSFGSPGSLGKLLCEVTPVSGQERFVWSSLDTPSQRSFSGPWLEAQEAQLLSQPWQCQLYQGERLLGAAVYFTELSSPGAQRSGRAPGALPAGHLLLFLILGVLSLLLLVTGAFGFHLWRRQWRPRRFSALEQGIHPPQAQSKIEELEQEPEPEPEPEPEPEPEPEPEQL
The test is described as follows: flow cytometry, SEB-activated human PBMCs, CD4 T cells, percent of cells bound. Here is the method:
(§3) Cells were incubated with a 12 point, 4-fold serial dilutions of Antibody A or Isotype hG1, starting at 100 μg/mL, in PBS+2% FBS for 30 minutes at 4° C. The samples were washed and stained with 1 μg/mL Alexa Fluor 647 AffiniPure F (ab′) 2 Fragment Goat Anti-Human IgG, Fcy fragment specific (Jackson Immuno Research 109-606-098) in PBS+2% FBS for 30 minutes at 4° C. After washing thoroughly human samples were stained with CD3 Biolegend #300424, CD4 Biolegend #300512, CD8 Biolegend #301006, PD-1 Biolegend 329906, non-competing LAG3 418611 conjugated in house BN20-2739-10, Live/Dead Near IR Invitrogen L34975A, CD19 Biolegend 302218, CD33 Biolegend 366614, and CD56 Biolegend 362512 in PBS+2% FBS for 30 minutes at 4° C. Cyno samples were stained with CD3 BD 557917, CD4 BD 566910, CD8 BD 557746, PD-1 Biolegend 329906, non-competing LAG3 418611 conjugated in house BN20-2739-10, and Live/Dead Near IR Invitrogen L34975A in PBS+2% FBS for 30 minutes at 4° C. Cells were washed and processed on a BioRad ZE5 cytometer and data was analyzed with FlowJo software (BD Biosciences). Percent of cells bound by the respective antibody is quantified and graphed with Prism (Graphpad, San Diego, CA).

The target of test [6] is T3, cell membrane-expressed human LAG-3. The test is described as follows: flow cytometry, SEB-activated human PBMCs, CD8 T cells, percent of cells bound. The procedure:
as §3

Test [7] has as its target T4, cell membrane-expressed cynomolgus LAG-3 (cynomolgus monkey).
T4 construct: whole, on cells; also called cell surface cynomolgus monkey LAG-3
The test is described as follows: flow cytometry, SEB-activated cynomolgus PBMCs, CD4 T cells, percent of cells bound. Here is the method: as §3

Test [8] addresses T4, cell membrane-expressed cynomolgus LAG-3. In words: flow cytometry, SEB-activated cynomolgus PBMCs, CD8 T cells, percent of cells bound. The procedure: as §3

B1: Antibody A (antibody, human IgG1, kappa, V domains shown)
VH: QVQLQESGPGLVKPSQTLSLTCTVSGGSISSGGYYWSWIRQHPGKGLEWIGYIYYSGITYYNPSLKSRVTISVDTSKNQFSLKLSSVTAADTAVYYCARSAVTTPFDYWGQGTLVTVSS
VL: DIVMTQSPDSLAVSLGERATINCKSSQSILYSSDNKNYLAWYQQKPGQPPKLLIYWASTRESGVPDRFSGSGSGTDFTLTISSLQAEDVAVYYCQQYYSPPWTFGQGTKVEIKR
notes: Human IgG1 heavy chain, kappa light chain; also called anti-human LAG-3 agonist antibody
B1: the Kd was 140 pM in the test with Human LAG-3 ECD-His [1], 38 pM in the test with Cynomolgus LAG-3 ECD-His [2], 64 pM with Human LAG-3 ECD-His [3] and 130 pM with Cynomolgus LAG-3 ECD-His [4]. The koff is 0.0012 s⁻¹ with Human LAG-3 ECD-His [1], 0.00015 s⁻¹ with Cynomolgus LAG-3 ECD-His [2], 0.0013 s⁻¹ with Human LAG-3 ECD-His [3] and 0.00035 s⁻¹ in the test with Cynomolgus LAG-3 ECD-His [4]. For the same molecule, the kon with Human LAG-3 ECD-His [1] was determined as 8.3e+06 M⁻¹ s⁻¹; with Cynomolgus LAG-3 ECD-His [2] it was 3.9e+06 M⁻¹ s⁻¹; with Human LAG-3 ECD-His [3], 2.1e+07 M⁻¹ s⁻¹; with Cynomolgus LAG-3 ECD-His [4], 2.7e+06 M⁻¹ s⁻¹. The EC50 in test [5] was 0.0156 µg/mL; in test [6], 0.0155 µg/mL; in test [7] it was 0.857 µg/mL; in test [8] it was 0.183 µg/mL.
